Experimental data published in PMC5798299.

Columns and labels:
[1] = molecular target: BG505 SOSIP.v4.1 S306L/R308L-D7324 trimer (HIV-1 (clade A, BG505)); assay: native gel or EMSA; BN-PAGE of PGT145-purified trimers, Coomassie Blue stain
[2] = molecular target: BG505 SOSIP.v4.1-D7324 trimer (HIV-1 (clade A, BG505)); assay: as above
[3] = molecular target: BG505 SOSIP.v5.2 S306L/R308L-D7324 trimer (HIV-1 (clade A, BG505)); assay: as above
[4] = molecular target: BG505 SOSIP.664-D7324 trimer (unpurified, 293T) (HIV-1 (clade A, BG505)); assay: native gel or EMSA; BN-PAGE of unpurified Env proteins in 293T culture supernatants, Western blot with bNAb 2G12
[5] = molecular target: BG505 SOSIP.664-D7324 A316W trimer (unpurified, 293T) (HIV-1 (clade A, BG505)); assay: as above
[6] = molecular target: BG505 SOSIP.v5.2-D7324 trimer (HIV-1 (clade A, BG505)); assay: native gel or EMSA; BN-PAGE of PGT145-purified trimers, Coomassie Blue stain
[7] = molecular target: BG505 SOSIP.664-D7324 R308L trimer (unpurified, 293T) (HIV-1 (clade A, BG505)); assay: native gel or EMSA; BN-PAGE of unpurified Env proteins in 293T culture supernatants, Western blot with bNAb 2G12
[8] = molecular target: BG505 SOSIP.664-D7324 S306L trimer (unpurified, 293T) (HIV-1 (clade A, BG505)); assay: as above
[9] = molecular target: BG505 SOSIP.664-D7324 trimer (PGT145-purified, 293F) (HIV-1 (clade A, BG505)); assay: native gel or EMSA; BN-PAGE of PGT145-purified trimers, Coomassie Blue stain

BG505 SOSIP.v4.1 S306L/R308L-D7324 trimer (complex)
stoichiometry N [1]: 3

BG505 SOSIP.v4.1-D7324 trimer (complex)
stoichiometry N [2]: 3

BG505 SOSIP.v5.2 S306L/R308L-D7324 trimer (complex)
stoichiometry N [3]: 3

BG505 SOSIP.664-D7324 trimer (unpurified, 293T) (complex)
stoichiometry N [4]: 3

BG505 SOSIP.664-D7324 A316W trimer (unpurified, 293T) (complex)
stoichiometry N [5]: 3

BG505 SOSIP.v5.2-D7324 trimer (complex)
stoichiometry N [6]: 3

BG505 SOSIP.664-D7324 R308L trimer (unpurified, 293T) (complex)
stoichiometry N [7]: 3

BG505 SOSIP.664-D7324 S306L trimer (unpurified, 293T) (complex)
stoichiometry N [8]: 3

BG505 SOSIP.664-D7324 trimer (PGT145-purified, 293F) (complex)
stoichiometry N [9]: 3
